For assay [1], the target named is Thermodesulfatator indicus HARP, recombinant (Thermodesulfatator indicus). Put plainly: SEC.
Assay [2] shares this target. Put plainly: mass photometry.

Where “and” joins values, the source holds several entries; their conditions need not be identical. Equal entries are not always repeated.

In the case of “Thermodesulfatator indicus HARP, recombinant (enzyme)”, the stoichiometry N (in general, the number of molecules, sites or subunits per partner or assembly) in assay [1] is < 12; in assay [2], 2 and 4.

The values are drawn from PMC9945441.
